Neutralization IC50 (RSV subtype A) and Kd data for 18 molecules are collected here from US20260258115A1.

As a reminder, the Kd is the concentration at which binding is half-saturated. Low readings indicate tighter binding, high ones weaker binding.

For experiment [1], the target named is Respiratory Syncytial Virus fusion glycoprotein (RSV F) on RSV-A2 virus (Respiratory Syncytial Virus subtype A (RSV-A2)). As to the kind of experiment: cell-based or functional assay.
Experiment [2] deals with RSV postfusion F (postF), F deltaFP (Respiratory Syncytial Virus). As to the kind of experiment: BLI, IgG on anti-human IgG sensor, 100 nM antigen. On the technique in general: Biolayer interferometry detects binding as a change in optical thickness at a sensor tip.
For experiment [3], the target named is RSV prefusion F (preF), DS-Cav1 (Respiratory Syncytial Virus). As to the kind of experiment: BLI, IgG on anti-human IgG sensor, 100 nM antigen.
In experiment [4] the target is RSV postfusion F (postF, F deltaFP) (Respiratory syncytial virus). As to the kind of experiment: BLI, IgG on sensor, 100 nM antigen.
For experiment [5], the target named is RSV prefusion F (preF, DS-Cav1) (Respiratory syncytial virus). As to the kind of experiment: BLI, IgG on sensor, 100 nM antigen.

B1: ADI-41153 (antibody, V domains shown)
VH: EVQLVESGGGLVKPGGSLRLSCAASQFTFSTYDMSWVRQAPGKGLEWVASISSGSTYIYYADSVKGRFTISRDNAKHSLFLQMKSLRAEDTALYYCARQVLYDRGGYYLYYFDHWGQGTLVTVSS
VL: DIQVTQSPSSLSASVGDRVTITCRASQTIASYLNWYQQKPGKAPNLLIYAASNLQSGVPSRFSGSGSGTEFTLTINTLQPEDFATYYCQQSYNFPYTFGQGTKVEIK
On to B1, for which the Neutralization IC50 (RSV subtype A) in experiment [1] is more than 25 µg/mL. In addition, the Kd came out at 0.445 nM in experiment [2] and 0.928 nM in experiment [3].

B2: ADI-41144 (antibody, V domains shown)
VH: EVQLVQSGAEVKKPGGSVKVSCKASGYTFSEYYMHWVRQAPGQGPEWVGRINPKSGRTNYAQNFQGRVTMTRDRSISTVYMDLSRLRSDDTAVYYCARWEVMDYGSGIYYNQDHFDYWGQGTLVTVSS
VL: DIRVTQSPSSLSASVGDRVTITCRASQDITNYLAWFQQKPGKAPKSLMYAASTLQSGVPSRFSGSGSGTDFTLTISSLQPEDFATYYCQQYKTYPITFGQGTRLEIK
Molecule B2 registered a Neutralization IC50 (RSV subtype A) in experiment [1] of 0.37 µg/mL. Besides, the dissociation constant (Kd) in experiment [2] was determined as 0.759 nM; in experiment [3] it was 0.94 nM.

B3: ADI-41149 (antibody, V domains shown)
VH: QVQLVQSGGGVVQPGRSLRLSCAASGFTFSDYGMHWVRQAPGKGLEWVAVIWFDGSNKNYADSVKGRFTISRDNSMNTLYLQMNNLRAEDTAVYYCARAPYSFWSGYYLDYWGQGSLVTVSS
VL: DIVMTQSPATLSVSPGERATLSCRASQSISSNLAWYQQKSGQAPRLLIYGASTRATGIPARFSGSGSGTEFTLTISSLQSEDFAVYSCQQYSKWPQTFGQGTKVEIK
Turning to B3, the Neutralization IC50 (RSV subtype A) in experiment [1] was more than 25 µg/mL. For the same molecule, the Kd in experiment [2] is 0.857 nM; in experiment [3], 4.34 nM.

B4: ADI-41176 (antibody, V domains shown)
VH: EVQLVESGPGLVKPSETLSLTCTVSGGSIGNDYYYWGWIRQPPGKGLEWIGNISYSGSTYYNPSLKSRVTISVGTSKNQFSLKLTSVSAADTAVYHCVGRTFWRDCSSTSCYEYYFDYWGQGTLVTVSS
VL: ETTLTQSPTSLSASVGDRVTITCRASQGISNYLAWYQQKPGKVPKVLIYAASTLQSGVSSRFSGSGSGTGFTLTISNLQPEDVATYYCQNYNSAPWTFGQGTKVEIK
Turning to B4, the Neutralization IC50 (RSV subtype A) in experiment [1] is more than 25 µg/mL. In experiment [2], this molecule registered a dissociation constant Kd of 4.07 nM.

B5: ADI-41218 (antibody, V domains shown)
VH: QVQLVQSGAEVKKPGASVKVSCKASGYTFISDGISWVRQAPGQGLEWMGWINPHNENTNYAQKFQGRVTMTTDTSTSTAYLELRGLRSDDTAVYYCARDPYHWSYLDYWGQGTLVTVSS
VL: QSVVTQPPSVSGAPGQRVTITCTGSSSNIGANSDVHWYQQIPGTAPKLLIFGNSNRPSGVPDRFSGSKSGTSASLAITGLQAEDEADYYCQSYDRSLSGSRVFGGGTRLTVL
Consider B5, for which the Neutralization IC50 (RSV subtype A) in experiment [1] was more than 25 µg/mL. The molecule further displayed a dissociation constant Kd in experiment [2] of 0.729 nM.

B6: ADI-41146 (antibody, V domains shown)
VH: QVQLVQSGAEVKKPGESLKISCKGSGHSFATFWIGWVRQVPGNGLELMGIINLGDSDTKYSPSFQGQVTISADESIGTAYLQWSSLKASDTAMYYCARVSLPHYYYYMDVWGKGTTVTVSS
VL: DIVMTQSPSSVSASVGDRVTITCRASQGISTWLAWYRQKPGKAPELLIYAASRLQSGVPSRFSGSGSGTDFTLTISSLQPEDFATYYCQQANSFLGAFGPGTKLEIK
As for B6, the Neutralization IC50 (RSV subtype A) in experiment [1] is more than 25 µg/mL. Besides, the values for the dissociation constant (Kd) in experiment [2] and in experiment [3] were 0.746 nM and 4.44 nM, respectively.

B7: ADI-41154 (antibody, V domains shown)
VH: QVQLQQWGAGLSKPSETLSVTCAVYGGSLSGHYWSWFRQPPGKGLEWIGEIDHSGSTTYNPSLKSRVTISVDTSKNQFSLKLTSVTAADTAMYYCARATRYNYGYTFDYWGQGTLVTVSS
VL: DIPLTQSPSSLSASVGDRVTITCRASQIISSYLNWYQQKPGKAPKLLIYAASTLQSGVPSRFSGSRSGTDFTLTISSLQPEDFASYYCQQSYIIPFTFGPGTKVEIK
Consider B7, for which the Neutralization IC50 (RSV subtype A) in experiment [1] is more than 25 µg/mL. For the same molecule, the equilibrium dissociation constant (Kd) in experiment [2] was 1.35 nM; in experiment [3], 4.63 nM.

B8: ADI-41345 (antibody, V domains shown)
VH: EVQLVQSGAEVRKPGESLKISCKGSGYNFASYWIAWVRQMPGKGLEWMGIIFPGDSDTRYSPSFQGQVTISVDKSISTAYLQWSSLKASDTAIYYCATSKYTFGYLDWGQGTLVTVSS
VL: NFMLTQPHSVSESPGKTVTISCTRSSGSIASNYVQWYQQRPGSAPTTVIYEDNQRPSGVPDRFSGSIDSSSNSASLTISGLKTEDEADYYCQSYDTSNQVFGTGTKVTVL
On to B8, for which the Kd turned out to be 0.349 nM in experiment [4] and 2.29 nM in experiment [5].

B9: ADI-41346 (antibody, V domains shown)
VH: QVQLVQSGPEVKKPGESLKISCTLSASGLTTYWIGWVRQMPAKGLEWMGIIFPGDSDTRYSPSFQGQVTISADKSTNTAYLQWSGLKASDTAIYYCATLQTPVTGLDQWGQGTLVTVSS
VL: NFMLTQPHSVSESPGKTVTISCTRSSGNIARSYVQWYQQRPGSAPTTVIHEDDQRPSGVPDRFSGSIDTSSNSASLTISGLKTEDEADYYCQSYDPSNYVFGTGTKVTVL
For the molecule B9, the dissociation constant Kd in experiment [4] stood at 0.267 nM; in experiment [5], 1.88 nM.

B10: ADI-41219 (antibody, V domains shown)
VH: EVQLVESGGGLVQPAGSLRLSCAASGFTFSNYVMNWVRQAPGKGLEWVSYISSSGRTIHYADSVKGRFTISRDNAKNSLYLEMNSLRAEDTAVYYCARDPNYGGNSNRFDSWGQGTLVTVSS
VL: DIVMTQTPSSLSASVGDRVTITCRASQTISNYLNWYQQKPGKAPKLLIFAASSLQSGVPSRFSGSGSGTDFTLTISSLQPEDFATYYCQQSYSAPRVTFGPGTKVDIK
As to B10, the Neutralization IC50 (RSV subtype A) in experiment [1] is more than 25 µg/mL. This molecule also yielded an equilibrium dissociation constant (Kd) in experiment [2] of 1.28 nM.

B11: ADI-41156 (antibody, V domains shown)
VH: QVQLVQSGGGLVQPGGSLRLSCVASGFIFSSYEMNWVRQAPGKGLEWVSYISSSGSTIYYADSVKGRFTISRDNAKNSLYLQMNSLGAEDTAVYYCARAILYFDYWGQGTLVTVSS
VL: GIRLTQSPSSLSASVGDRVTITCRASQSITNYINWYQQKPGKAPKLLIYAISRLQSGVPSRFSGSGSGTDFTLTISSLQPEDFATYYCQQSYSTMYTFGQGTKVEIK
In experiment [1], B11 registered a Neutralization IC50 (RSV subtype A) of more than 25 µg/mL. Moreover, the Kd in experiment [2] came to 1.7 nM.

B12: ADI-41223 (antibody, V domains shown)
VH: QVQLVESGGGVVQPGRSLRISCAASGFTFSNYGMHWVRQAPGKGLEWVAVLSYDGSNEYYADSVKGRFTISRDNSKNTLYLQMNSLRAEDTAVYYCAKNLNDYNISWYKCFDLWGRGTLVTVSS
VL: QPVLTQPASVSGSPGQSITISCTGTSSDVGGYNYVSWYQHHPGKAPKLIIYDVNNRPSGVSNRFSGSKSGNTASLTISGLQAEDEADYICSSYTTITTFVVFGGGTKLTVL
As to B12, in experiment [1], the Neutralization IC50 (RSV subtype A) was more than 25 µg/mL. This molecule also showed a Kd in experiment [2] of 1.81 nM.

B13: ADI-41347 (antibody, V domains shown)
VH: EVQLVESGPGLVKPSGTLSLTCAVSGGSVSSDNWWSWVRQPPGKGIEWIGEIYPSGGTNYNPSLNSRVTISVDKSKNQFSLKLNSVTAADTAIYYCARAPFDSSGYHSNSVWGQGTLVTVSS
VL: ETTLTQSPLSLPVTPGEPASISCRSSQSLLHSNGHNYLDWYVQKPGQSPQLLIYLSSNRASGVPDRFSGSGSGTDFTLRISRVEAEDVGVYYCMQPLQTPQTFGQGTKVEIK
In the case of B13, the dissociation constant Kd was determined as 0.521 nM in experiment [4] and 2.6 nM in experiment [5].

B14: ADI-41174 (antibody, V domains shown)
VH: EVQLVESGAEVEKPGASVKVSCKASGYTFINYDIIWVRQAPGQGLEWMGWISGYKGNTNYAQKLQGRITMSTDTSTRTAYMELRSLTSDDTAVYYCARVGGTARSTTPYYYGMDVWGQGTTVTVSS
VL: SYVLTQPPSVSVSPGQTARITCSGDAVPKQFSYWYQQKPGQAPVLVIYKDIERPSGIPERFSGSSSGTTVTLTISGVQAEDEADYYCQSAHTSGTYHVFGTGTKLTVL
Regarding B14, the Neutralization IC50 (RSV subtype A) in experiment [1] is more than 25 µg/mL. Besides, the Kd in experiment [2] was 0.751 nM.

B15: ADI-41342 (antibody, V domains shown)
VH: QVQLVQSGAEVKKPGSSVKVSCKASGGTLTSYGVSWVRQAPGQGLEWMGGIIPIFGTVDYAQKFQGRVTITADEPTSTAYMELSSLTSDDTAVYYCARDPWVSGPVEFYYYFDVWGRGTLVTVSS
VL: DIVLTESPATLSLSPGERATLSCRASQSINNRYLAWYQQKPGQAPRLLIFGASSRATGIPDRFSGSGSGTDFTLTISRLEPEDFAVYYCQQYGSTPPTFGQGTKVEIK
For the molecule B15, the Kd in experiment [4] stood at 0.591 nM; in experiment [5] it was 3.99 nM.

B16: ADI-41194 (antibody, V domains shown)
VH: QVQLQESGPGLVKPSQMLSLTCTVSGDSISSGDYYWSWIRHHPGKGLEWIGYISYSGSTYNNPSLKSRVTVSVDTSKNQFFLKLTSVTAADTAVYYCARATKPYHSYFYMDVWGKGTTVTVSS
VL: EIVLTQSPGTLSLSPGERATLSCRASQSGSRSYLAWYQQRPGQAPRLLIYGASNRATGIPDRFSGSGSGTDFTLTISRLEPEDFAVYYCQQYGNAPTFGGGTKVDIK
As to B16, the Neutralization IC50 (RSV subtype A) in experiment [1] was more than 25 µg/mL. Also, the equilibrium dissociation constant (Kd) in experiment [2] stood at 1.16 nM.

B17: ADI-41159 (antibody, V domains shown)
VH: EVQLVESGAEVKKPGESLKISCKGSGYSFTTYWIGWVRQMPGKGLEWMGIMYPGDSQTRYSPSFQGQVTISADKSISTAYLQWSSLKASDTAMYYCARGGYCSGGSCYRGLDYWGQGTLVTVSS
VL: EIVMTQSPSSLSASVGDRVTITCRASQSISSFLNWYQQKPGKAPNLLIYAASSLLSGVPSRFSGSGSGTDFTLTISSLQPEDFATYYCQQSHSTPQTFGQGTKLEIK
In experiment [1], B17 gave a Neutralization IC50 (RSV subtype A) of more than 25 µg/mL. The same molecule displayed a Kd in experiment [2] of 9.87 nM.

B18: ADI-41164 (antibody, V domains shown)
VH: QVQLVQSGGDLVQPGGSLRLSCAASGFTFSDYEVNWVRQAPGKGLEWLSYISSSGRIIHYADSVRGRFTISRDNAKNSLYLQMNSLRAEDTAVYYCARAAGQWLVTYYYYGMDVWGQGTTVTVSS
VL: QSVMTQSPSTLSASVGDTVTITCRASQSIINRLAWYQQKPGKPPKLLIYKSSSSESGVPSKFSGSGSGTEFTLTINSLQPDDFATYYCQHYNSYLYTFGQGTKVEIK
In experiment [1], B18 yielded a Neutralization IC50 (RSV subtype A) of more than 25 µg/mL. In experiment [2], this molecule registered a Kd of 0.962 nM.
